Test results taken from patent US6207419A, “Thrombin inhibitory agents and methods of using same” (The University of North Carolina at Chapel Hill, priority 1999, dated 2001).

How the values were obtained:
[1] = target: T1, α-thrombin (Homo sapiens, UniProt P00734); experiment: Effect of hirugen on thrombin inhibition in the absence of glycosaminoglycan; type: biochemical
T1 construct: Human α-thrombin, HCII, and ATIII were purified in our laboratory from plasma; from tissue; host or cells: human plasma (purified in the authors' laboratory)
Protocol: (§1) Residual thrombin activity was measured with 150 μM GlyProArg-NA and 1 mg/mL pB in the absence of glycosaminoglycan, 2 mg/mL pB in the presence of heparin and 4 mg/mL in the presence of dermatan sulfate. Residual factor Xa activity was measured with 500 μM Spectrozyme FXa and 2mg/mL pB in the presence or absence of glycosaminoglycan. Residual chymotrypsin activity was measured with 150 μM AlaAlaProPhe-NA and residual trypsin activity was measured with 150 μM GlyProArg-NA.
Assays were performed at least in triplicate on two or more recombinant protein preparations.

[2] = target: T2, plasma purified α-thrombin (Homo sapiens, UniProt P00734); experiment: Thrombin inhibition in the presence of glycosaminoglycans (heparin or dermatan sulfate); type: biochemical
T2 construct: Human α-thrombin, HCII, and ATIII were purified in our laboratory from plasma; from tissue; host or cells: human plasma (purified in the authors' laboratory)
Protocol: Protease inhibition rates were determined as described previously (Rogers, S. J., Pratt, C. W., Whinna, H. C., and Church, F. C. (1992) J. Biol. Chem. 267(6), 3613-3617; Whinna, H. C., Choi, H. U., Rosenberg, L. C., and Church, F. C. (1993) J. Biol. Chem. 268, 3920-3924; Ciaccia, A. V., Cunningham, E. L., and Church, F. C. (1995) Protein Express. Purific. 6, 806-812; Ciaccia, A. V., Willemze, A. J., and Church, F. C. (1997) J. Biol. Chem. 272(2), 888-893). All assays were performed at room temperature in 96-well microtiter plates previously coated with 2 mg/mL BSA.
In the presence of glycosaminoglycans, 5 nM rHCII (wt, CHis6, CHis5 Pro, L444R, or L444R-CHis6) was incubated with 0.5 nM thrombin and 0-1 mg/mL heparin or 0-4 mg/mL dermatan sulfate or 10 nM rATIII (wt or CHis6) was incubated with 1 nM thrombin or factor Xa and 0-1 mg/mL heparin in the presence of 2 mg/mL BSA in HNPN, pH 7.4.
as §1, with “GlyProArg-NA. Substrate cleavage was measured by color development at […] on a Vmax Kinetic Microplate Reader (Molecular Devices).” for “GlyProArg-NA.”
Assays were performed at least in triplicate on two or more recombinant protein preparations. All inhibition studies were measured under pseudo-first order conditions where inhibitor [I] is at least ten-fold higher than enzyme (protease) [E], and second-order rate constants were calculated as described previously (Ciaccia, A. V., Cunningham, E. L., and Church, F. C. (1995) Protein Express. Purific. 6, 806-812; Ciaccia, A. V., Willemze, A. J., and Church, F. C. (1997) J. Biol. Chem. 272(2), 888-893).

B1: rHCII-CHis6: Recombinant HCII with six histidine residues added at the carboxyl terminus; SEQ ID NO:5 (protein)
chain: MKHSLNALLIFLIITSAWGGSKGPLDQLEKGGETAQSADPQWEQLNNKNLSMPLLPADFHKENTVTNDWIPEGEEDDDYLDLEKIFSEDDDYIDIVDSLSVSPTDSDVSAGNILQLFHGKSRIQRLNILNAKFAFNLYRVLKDQVNTFDNIFIAPVGISTAMGMISLGLKGETHEQVHSILHFKDFVNASSKYEITTIHNLFRKLTHRLFRRNFGYTLRSVNDLYIQKQFPILLDFRTKVREYYFAEAQIADFSDPAFISKTNNHIMKLTKGLIKDALENIDPATQMMILNCIYFKGSWVNKFPVEMTHNHNFRLNEREVVKVSMMQTKGNFLAANDQELDCDILQLEYVGGISMLIVVPHKMSGMKTLEAQLTPRVVERWQKSMTNRTREVLLPKFKLEKNYNLVESLKLMGIRMLFDKNGNMAGISDQRIAIDLFKHQGTITVNEEGTQATTVTTVGFMPLSTQVRFTVDRPFLFLIYEHRTSCLLFMGRVANPSRSHHHHHH
modifications: C-terminal His6 tag
reduction of rate of thrombin inhibition by hirugen ([1]; hirugen 20 μM, absence of glycosaminoglycan): > 50%
rate constant of inhibition (k2) in the absence of peptide ([1]; no hirugen, no control peptide, FIG. 5): 310 M⁻¹ s⁻¹
average dermatan sulfate concentration at which the maximal rate was measured (in parentheses), thrombin ([2]; Thrombin + dermatan sulfate, unit not printed in table (text b157: μg/mL)): 500
average heparin concentration at which the maximal rate was measured (in parentheses), thrombin ([2]; Thrombin + heparin, unit not printed in table (text b156: μg/mL)): 5
dermatan sulfate concentration at maximal rate of thrombin inhibition ([2]; dermatan sulfate): approximately 500 μg/mL
maximal rate of thrombin inhibition in the presence of dermatan sulfate ([2]; dermatan sulfate at optimal concentration): 1.80±0.50×10^9 M^-1 min^-1
decrease in the amount of heparin required for maximal activity versus wt-rHCII ([2]; heparin): ~20 fold
heparin concentration at maximal rate of thrombin inhibition ([2]; heparin): 5 µg/mL
maximal rate of thrombin inhibition in the presence of heparin ([2]; heparin at optimal concentration): 2.23±0.43×10^9 M^-1 min^-1
Inhibition Rate k2 × 10^8 (M^-1 min^-1), Thrombin + dermatan sulfate ([2]; maximal rate of dermatan sulfate curve, mean ± S.D.): 18.0 ± 5.0 × 10^8 (M^-1 min^-1)
Inhibition Rate k2 × 10^8 (M^-1 min^-1), Thrombin + heparin ([2]; maximal rate of heparin curve, mean ± S.D.): 22.3 ± 4.3 × 10^8 (M^-1 min^-1)
Ratio (variant/wt), Thrombin + dermatan sulfate ([2]; maximal rates): 1.2
Ratio (variant/wt), Thrombin + heparin ([2]; maximal rates): 2.4
increase in the rate of thrombin inhibition with heparin versus wt-rHCII ([2]; maximal rates with heparin): > 2 fold
increase of rate of thrombin inhibition with heparin ([2]; with heparin versus without): over 100,000 fold
